Earlier results on one substance are cited in PMC6627431.

What is called Kd is a measure of binding affinity in units of concentration.

In data set [1] the target is KV1.3 (UniProt P22001).
For data set [2], the target named is KV1.2 (UniProt P16389).
Data set [3] deals with KV1.1 (UniProt Q09470).
Chain of UniProt Q09470 (Q09470 whole entry): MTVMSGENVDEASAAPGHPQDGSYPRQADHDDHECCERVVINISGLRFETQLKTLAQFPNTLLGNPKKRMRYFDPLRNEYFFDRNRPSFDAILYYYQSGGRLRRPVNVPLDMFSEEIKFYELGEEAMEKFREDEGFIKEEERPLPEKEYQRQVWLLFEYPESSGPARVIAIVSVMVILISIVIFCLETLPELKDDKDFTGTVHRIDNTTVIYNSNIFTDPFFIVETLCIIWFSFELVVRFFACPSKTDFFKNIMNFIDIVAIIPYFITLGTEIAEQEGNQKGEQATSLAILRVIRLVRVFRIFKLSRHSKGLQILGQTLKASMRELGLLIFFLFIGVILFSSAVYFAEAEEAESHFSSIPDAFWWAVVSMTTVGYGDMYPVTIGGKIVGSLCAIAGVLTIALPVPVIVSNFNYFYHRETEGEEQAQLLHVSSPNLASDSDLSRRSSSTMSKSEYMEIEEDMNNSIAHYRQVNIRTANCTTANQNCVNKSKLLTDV

Chain of UniProt P22001 (P22001 whole entry): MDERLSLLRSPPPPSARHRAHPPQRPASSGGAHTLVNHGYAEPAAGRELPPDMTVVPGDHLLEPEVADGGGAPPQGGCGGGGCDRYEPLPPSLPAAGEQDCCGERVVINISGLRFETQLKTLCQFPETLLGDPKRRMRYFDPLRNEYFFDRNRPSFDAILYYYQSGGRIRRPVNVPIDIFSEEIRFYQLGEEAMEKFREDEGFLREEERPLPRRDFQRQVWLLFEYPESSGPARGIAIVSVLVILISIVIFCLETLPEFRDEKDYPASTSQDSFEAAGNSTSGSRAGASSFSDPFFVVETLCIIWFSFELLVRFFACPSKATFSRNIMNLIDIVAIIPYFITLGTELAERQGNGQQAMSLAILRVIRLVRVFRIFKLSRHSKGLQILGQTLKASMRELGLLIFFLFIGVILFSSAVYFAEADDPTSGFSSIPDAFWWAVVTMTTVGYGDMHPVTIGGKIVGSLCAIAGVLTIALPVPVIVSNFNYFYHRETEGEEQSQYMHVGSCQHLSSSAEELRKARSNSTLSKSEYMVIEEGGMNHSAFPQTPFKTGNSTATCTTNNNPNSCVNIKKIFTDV
Chain of UniProt P16389 (P16389 whole entry): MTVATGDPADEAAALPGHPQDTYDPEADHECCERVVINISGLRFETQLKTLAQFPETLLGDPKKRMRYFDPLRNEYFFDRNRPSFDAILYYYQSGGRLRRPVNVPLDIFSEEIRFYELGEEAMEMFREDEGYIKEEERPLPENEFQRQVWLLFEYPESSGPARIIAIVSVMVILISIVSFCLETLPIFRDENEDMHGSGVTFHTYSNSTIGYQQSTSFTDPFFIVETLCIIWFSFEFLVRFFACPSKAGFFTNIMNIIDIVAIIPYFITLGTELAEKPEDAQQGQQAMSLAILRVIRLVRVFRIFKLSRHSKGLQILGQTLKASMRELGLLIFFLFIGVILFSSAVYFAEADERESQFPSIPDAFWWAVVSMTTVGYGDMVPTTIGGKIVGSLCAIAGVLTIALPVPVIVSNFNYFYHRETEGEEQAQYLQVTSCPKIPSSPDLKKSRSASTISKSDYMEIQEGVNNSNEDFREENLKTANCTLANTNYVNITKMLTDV

As to BgK (from UniProt P29186), the values for the Kd in data set [1], in data set [2] and in data set [3] were 10 nM, 15 nM and 6 nM, respectively.
